# Results from patent US20210292392A1.
# Experiments:
# Experiment in all cases: cell-based or functional assay
# [1] = target: spike protein on live SARS-CoV-2 (SARS-CoV-2) (UniProt P0DTC2)
# [2] = target: spike (S) protein of live SARS-CoV-2 (SARS-CoV-2) (UniProt P0DTC2)
# [3] = target: full length S protein of SARS-CoV-2 (on pseudovirus) (SARS-CoV-2) (UniProt P0DTC2)
# [4] = target: spike protein of live SARS-CoV-2 (SARS-CoV-2) (UniProt P0DTC2)
substance,measurement,setting,value
P2C-1F11 (antibody),"IC50, live SARS-CoV-2 focus reduction neutralization test (FRNT)",[1],0.03 µg/mL
same,Live virus IC50,[2],0.0323 µg/mL
same,Live virus IC80,[2],0.178 µg/mL
same,Pseudovirus IC50,[3],0.0286 µg/mL
same,Pseudovirus IC80,[3],0.119 µg/mL
same,Live virus IC50,[4],0.0323 µg/mL
same,Live virus IC80,[4],0.178 µg/mL
